Laboratory results taken from patent publication US12558435B2, “Transient inhibition of p53 in gene therapy” (Ospedale San Raffaele S.R.L., priority 2018, dated 2026).

B1: GSE56: p53 dominant negative peptide (SEQ ID No. 9), transiently overexpressed from electroporated mRNA (protein)
chain: MDGWCPGRDRRTEEENFRKKEEHCPELPPGSAKRALPTSTSSSPQQKKKPLDGEYFTLKIRGRERFEMFRELNEALELKDARAAEESGDSRAHSSYPKIVS
modifications: amino acid sequence of GSE56
B2: E4orf6/7: adenoviral protein from adenovirus serotype 5 E4 gene (SEQ ID No. 2), delivered as mRNA (protein)
chain: MTTSGVPFGMTLRPTRSRLSRRTPYSRDRLPPFETETRATILEDHPLLPECNTLTMHNAWTSPSPPVKQPQVGQQPVAQQLDSDMNLSELPGEFINITDERLARQETVWNITPKNMSVTHDMMLFKASRGERTVYSVCWEGGGRLNTRVL
modifications: delivered as mRNA; example amino acid sequence of Ad5-E4orf6/7

Columns and labels:
CDK2 = experiment: TaqMan assay of CDK2 gene expression; type: cell-based, human; settings: 24 hours post-editing; FIG. 16A-B
CDKN2A = experiment: TaqMan assay of CDKN2A gene expression; type: cell-based, human; settings: 24 hours post-editing; FIG. 16C-D
APOBEC3H = experiment: TaqMan assay of APOBEC3H gene expression; type: cell-based, human; settings: 24 hours post-editing; FIG. 16G
Excerpt: (§1) For gene expression analyses, total RNA was extracted using the RNeasy Plus Micro Kit (QIAGEN). cDNA was synthetized with SuperScript VILO IV cDNA Synthesis Kit (Invitrogen) and used for Q-PCR in a Viia7 Real-time PCR thermal cycler using TaqMan Gene Expression Assays (Applied Biosystems) mapping to CDKN1A, RPS27L, PHLDA3, APOBEC3H, and HPRT as normalizer. The relative expression of each gene was first normalized to HPRT expression and then represented as fold change relative to the mock-treated sample.

CDKN1A = experiment: TaqMan assay of CDKN1A gene expression; type: cell-based, human
Excerpt: as §1

human CD34+ cells [1] = type: cell-based
Procedure: CD34+ cells were either freshly purified from human CB after obtaining informed consent and upon approval by the Ospedale San Raffaele Bioethical Committee, or purchased frozen from Lonza. CD34+ cells were edited according to a previously optimized protocol (Schiroli et al. 2017 supra).
Briefly, 5×10^5 CD34+ cells/ml were stimulated in serum-free StemSpan medium (StemCell Technologies) supplemented with penicillin, streptomycin, glutamine, 1 μM SR-1 (Biovision), […] (STEMCell Technologies), 10 μM PGE2 added only at the beginning of the culture (Cayman), and human early-acting cytokines (SCF 100 ng/ml, Flt3-L 100 ng/ml, TPO 20 ng/ml, and IL-6 20 ng/ml; all purchased from Peprotech). After 3 days of prestimulation, cells were washed with PBS and electroporated using P3 Primary Cell 4D-Nucleofector X Kit and program EO-100 (Lonza). Cells were electroporated with 2.5-1.25 μM of RNPs.
Transduction with AAV6 was performed at a dose of 1-2×10^4 vg/cell 15′ after electroporation. GSE56 mRNA was utilized were indicated at a dose of 150 μg/ml. Gene editing efficiency was measured from cultured cells in vitro 3 days after electroporation by flow cytometry measuring the percentage of cells expressing the GFP marker or by digital droplet PCR analysis designing primers and probe on the junction between the vector sequence and the targeted locus and on control sequences utilized as normalizer as previously described (Schiroli et al. 2017 supra).
For HDR ddPCR, primers and probes were designed on the junction between the vector sequence and the targeted locus and on control sequences used for normalization (human TTC5 genes). Thermal conditions for annealing and extension were adjusted for each specific application as follows: AAVS1/Intron 1 IL2RG HDR 3′ integration junction ddPCR: 55° C. for 30 sec, 72° C. for 2 min. Primers and probes for PCR and ddPCR amplifications are shown below.
CD34^+ cells were purchased frozen from Lonza. CD34^+ cells were edited according to a previously optimised protocol (Schiroli, G. et al (2017) Sci Transl Med 9). Briefly, 1-5×10^5 CD34^+ cells/ml were stimulated in serum-free StemSpan medium (StemCell Technologies) supplemented with penicillin, streptomycin, glutamine, 1 μM of the arylhydrocarbon receptor antagonist SR-1 (Biovision), […] of the pyrimidoindole-derivative UM171 (STEMCell Technologies), 10 μM of the 15-hydroxy PGDH competitive inhibitor dmPGE-2 added only at the beginning of the culture (Cayman), and human early-acting cytokines (SCF 100 ng/ml, Flt3-L 100 ng/ml, TPO 20 ng/ml, and IL-6 20 ng/ml; all purchased from Peprotech). After 3 days of pre-stimulation, cells were washed with PBS and electroporated using P3 Primary Cell 4D-Nucleofector X Kit and program EO-100 (Lonza). Cells were electroporated with 1-1.2 μM of RNPs. Where specified, electroporation mixture was supplemented with Ad5-E4orf1, Ad5-E4orf6/7 and GSE56/Ad5-E4orf6/7 mRNAs, which were respectively utilized at doses of 120, 80 and 200 μg/ml, or Ad5-E1B55K and Ad5-E4orf6 mRNAs were used at 120 and 80 μg/ml. All other adenoviral protein variants were used at standard dose 120 μg/ml. Transduction with AAV-6 was performed 15 min post-electroporation at dose of 1-5×10^4 vg/cell. Where specified, CD34+ cells were stimulated for shorter time in culture (0, 24 or 48 hours) and edited as described above. Gene editing efficiency was measured from cultured cells in vitro at 4 days post-editing by flow cytometry measuring the percentage of cells expressing the GFP reporter gene or by digital droplet PCR analysis designing primers and probe on the junction between the vector sequence and the targeted locus and on control sequence utilised as normaliser as previously described (Schiroli, G. et al (2017) Sci Transl Med 9) and Schiroli et al., Cell Stem Cell 2019. […]

human CD34+ cells [2] = experiment: Cell cycle analysis by Hoechst 33342 staining; type: cell-based; settings: for cell cycle states (G1 to S/G2/M): bulk treated cells, 12-24 hours, FIG. 14H
Procedure: Cell cycle was analysed by flow cytometry (CytoFLEX LX; Beckman Coulter) at 12-24 hours post-editing by collecting 0.5-1×10^5 total HSPCs in culture. Cells were washed with PBS+2% FBS and stained by using 10 μg/ml Hoechst 33342 (Sigma-Aldrich) in PBS+2% FBS for 0.5-1 hour in final volume equal to 200 μl.

| Molecule | CDK2 expression (CDK2) | CDKN2A expression (CDKN2A) | APOBEC3H expression (APOBEC3H) | reduction of the amplitude of p21 (CDKN1A) activation compared to RNP+AAV6 (CDKN1A; 24 hours post-editing, FIG. 16E) | increase of GFP expression compared to standard RNP+AAV6 (human CD34+ cells [1]; AAVS1, most primitive compartment (CD34+133+90+ / CD90+), 96 hours, FIG. 14C) | HDR-mediated integration (GFP+ cells) in the CD34+ 133+ 90+ fraction, mean (human CD34+ cells [1]; AAVS1 or IL2RG editing, 3 days) | overall efficiency of DNA repair (human CD34+ cells [1]; AAVS1 or IL2RG editing, 3 days, FIG. 3C) | HDR-mediated integration at the targeted locus (human CD34+ cells [1]; AAVS1 or IL2RG editing, ddPCR, 3 days, FIG. 3C left) | percentage of cells in S/G2/M phases (human CD34+ cells [2]; 24 hours after gene editing, FIG. 12A) | cell cycle states (G1 to S/G2/M) (human CD34+ cells [2]) | CDKN1A expression compared to the standard (CDKN1A; 12 hours post-editing, FIG. 16F) | mean increase in the percentage of primitive HSPC expressing GFP (CD34+CD133+CD90+GFP+) (human CD34+ cells [1]; AAVS1, CB CD34+, vs standard, all AAV6 doses, FIG. 6B) | increase in the percentage of targeted CD90+ cells (human CD34+ cells [1]; AAVS1, cells for NSG transplantation, FIG. 10B) | editing efficiency (GFP expression) at IL2RG locus (human CD34+ cells [1]; IL2RG, FIG. 14I) | HDR edited alleles at AAVS1 locus (human CD34+ cells [1]; digital PCR in bulk culture, FIG. 14D) | HDR-events integrations increase in AAVS1 locus of HSPCs (human CD34+ cells [1]; discussion) | editing efficiency by molecular analyses on genomic DNA (human CD34+ cells [1]; human HSPC, FIG. 8B) | mean increase in the fraction of GFP+ cells compared to the standard (human CD34+ cells [1]; side-by-side, AAVS1, 4 days, FIG. 7A) | editing efficiency with editing at day 0 to day 2 post-thawing (human CD34+ cells [1]; total bulk and CD90+ fraction, AAVS1, FIG. 14K) | HDR-mediated integration (genomic DNA) (human CD34+ cells [1]; vs standard, FIG. 10D) |
| --- | --- | --- | --- | --- | --- | --- | --- | --- | --- | --- | --- | --- | --- | --- | --- | --- | --- | --- | --- | --- |
| B1 | remained always at basal level | still remained at basal level | significantly down-regulated | about 3 fold | 1.1 fold | 42% | did not negatively impact overall efficiency of DNA repair | promoted HDR-mediated integration at the targeted locus | partially rescued | lower and not significant |  |  |  |  |  |  |  |  |  |  |
| B2 | significantly up-regulated | significantly up-regulated | significantly down-regulated |  |  |  |  |  |  | significant transition from G1 phase to S/G2/M phases | about 2 fold | 1.5 fold | 1.4 fold | significant editing efficiency increase | significantly increased | 1.5 fold | reproducibly able to boost editing | 1.45 fold | editing efficiency was increased | increase levels of HDR-mediated integration |
